Publication PMC11929097, “Stabilized designs of the malaria adhesin protein PvRBP2b for use as a potential diagnostic for Plasmodium vivax [image fx2.gif]” (The Journal of Biological Chemistry, 2025)
Numbering of substitutions follows the chain as printed. Values joined by “and” are separate entries in the source; they are usually repeats but may differ in a detail not shown here. Equal entries are not always repeated.

T1: WHT2484 (PROSS-MPNN stabilized design of PvRBP2b_(169-470)) (Plasmodium vivax strain Salvador I …, Lys248Leu | Met324Phe | Gln378Leu | Arg418Glu)
T1 construct: PvRBP2b, P. vivax strain Salvador I, PVX_094255, residues 169-470 with 26 designed stabilising mutations; 26 mutations relative to the parental protein; crystal structure PDB 9DZD solved here
T1 chain: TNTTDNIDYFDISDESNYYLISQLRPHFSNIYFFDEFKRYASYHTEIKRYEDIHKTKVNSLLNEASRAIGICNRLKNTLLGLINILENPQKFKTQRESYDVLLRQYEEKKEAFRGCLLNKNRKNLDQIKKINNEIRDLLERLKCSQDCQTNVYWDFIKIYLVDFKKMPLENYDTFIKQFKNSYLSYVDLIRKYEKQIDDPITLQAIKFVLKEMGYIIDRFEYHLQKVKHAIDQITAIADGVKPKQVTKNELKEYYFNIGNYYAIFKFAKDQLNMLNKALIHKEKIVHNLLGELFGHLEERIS

T2: WHT2483 (PROSS-MPNN stabilized design of PvRBP2b_(169-470)) (Plasmodium vivax strain Salvador I …, Gln378Leu | Arg418Glu)
T2 construct: PvRBP2b, P. vivax strain Salvador I, PVX_094255, residues 169-470 with 19 designed stabilising mutations; 19 mutations relative to the parental protein; crystal structure PDB 9DZC solved here
T2 chain: T1 chain with L80K, R141K, F156M, Y193I, Q204N, I234V, I237L

B1: human mAb 237235 (antibody, V domains shown)
VH: QVQLVESGGGVVQPGRSLRLSCAASGFMFNSYGMHWVRQAPGKGLEWMAFISYDGSDDYYGDSVKGRITISRDNSKNTLFLHINSLRTEDTAVYYCAKESNYGENAFDVWGHGTMVTVSS
VL: QSALTQPRSVSGSPGQSVTISCTGTSNDVGFYNFVSWYQHHPGKAPKLMIYDVTERPSGVPDRFSGSKSGNTASLTISGLQAEDEAEYYCCSYAGTYTFVFGHGTKVTVL
notes: naturally acquired human mAb, recombinant IgG captured by its Fc; source: Expi293 HEK cells, transfected, purified (protein A, SEC)
B2: human mAb 243244 (antibody, V domains shown)
VH: QVQLVESGGGVVQSGKSLRVSCAASGFTFSSYGMHWVRQAPGKGLEWVAFISYDGDNKYSADSVKGRLTISRDNSKNTLYLQMNSLRPEDTAVYYCAKESNYGENAFDIWGQGTMVTVSS
VL: B1 VL with N27S, M49I, T54S, T76S, A82P, E87D, H103S
notes: as for B1
B3: human mAb 253245 (antibody, V domains shown)
VH: EVQLVQSGAEVKKPGSSMKVSCKASGGTFNRYVFSWVRQAPGQGLEWMGGILPILETTYYAKNFKGRVTITADESTSTVYMELSSLTSEDTAVYFCARDEHDYVWGSYRPSLTGPWGQGTLVTVSS
VL: QSALTQPPSTSGSPGQSVTISCTGTGIDVGGFSYVSWFQYHPGKAPKLIIFEVTKRPSGVPDRFSGSKSGNTASLTISGLQADDEAEYYCSSYAVNNNFVFGTGTKVTVL
notes: as for B1
B4: human mAb 258259 (antibody, V domains shown)
VH: EVQLLESGGGLVRPGGSQRLSCAASGFTFTPYAMTWVRQAPGKGLEWLSTISGSGGSTYYADSVKGRFTISRDNSKNMLYLQMNSLTAEDTALYYCTKDKDEYTFGHNAFDVWGQGTMVTVSS
VL: SYELTQAPSVSVAPGQTARITCGGDNIGRKTVNWYQQKPGQAPVLVIYYDNDRPSGIPERFSGSNSGNMATLSISRVEVGDEADYYCQVWDSNNDHPVFGGGTKLTVV
notes: as for B1
B5: human mAb 273264 (antibody, V domains shown)
VH: B4 VH with Y59S, M78I, N84D, T87R, Q115R
VL: B4 VL with K30T, T31S, N33H, Y48F
notes: as for B1
B6: human mAb 251249 (antibody, V domains shown)
VH: EVQLVESGGGLVKPGGSLRLSCEASGFLFSSYSMNWVRQAPGKGLEWVSSITGYSSEVFYTDSVKGRFTVSRDNSKNSLYLQMDSLRAEDTAVYYCARALTIFGVVITDYWFFDLWGRGTLVTVSS
VL: EIVLTQSPATLSLSPGDRATLSCRASQSVTTFLAWYQQKPGQAPRLLIYDVSNRATGIPARFSGSGSGTDFTLTISSLEPEDFAVYYCQQRSNWGLTFGGGTKVEIK
notes: as for B1
B7: human mAb 241242 (antibody, V domains shown)
VH: EVQLLESGGGLVQPGGSLRLSCAVSGFTFRNYALSWVRQAPGKGLDWVSTISASGGATYYADSVKGHFTISRDNSKNILYLDMKSLRAEDTAIYYCARDGGSYTPYFFLDSWGQGALVTVSS
VL: SYELTQPASVSVAPGQTAQITCGGNSIGRKSIHWYQHKPGQAPVLVISYDSDRPSGIPERFSGSNSGNTATLTISKVEAGDEADFYCQVRDSDNDHVVFGGGTKLTVL
notes: as for B1
B8: human mAb 283284 (antibody, V domains shown)
VH: QVQLQQWGAGLLKPSETLALTCTVYGGSSSGYYWNWIRQSPGKGLEWIGEISDSGSTIYNPSLESRVTMSVDTSKNQFSLKLTSVTAADTAVYYCAKAILTRYNWLDPWSQGTLVTVSS
VL: DIVMTQSPSSLSASVGDRISISCRASQGVNSALAWYQQKPGKAPKLLIYDASTLESGVPSRFSGSGSGTDFALTINSLQPEDFATYYCQQFNSYPLTFGGGTKVEIK
notes: as for B1

Molecular target: T1, WHT2484 (PROSS-MPNN stabilized design …)
Test: BLI; Octet RED96; human mAb loaded on anti-human IgG Fc capture sensor tips; parental PvRBP2b169-470 or design in solution, 2-fold series 0.63 to 10 nM; 25 °C; PBS, 0.1% bovine serum albumin, 0.05% Tween-20; global fit 1:1 model; two independent experiments
Conditions: both partners purified

Question: B1 was tested. Which kon did it give?
Answer: 658000 M⁻¹ s⁻¹ and 745000 M⁻¹ s⁻¹

Question: B2 was tested. Which kon did it give?
Answer: 705000 M⁻¹ s⁻¹ and 780000 M⁻¹ s⁻¹

Question: For B3, which kon is on record?
Answer: 1.06e+06 M⁻¹ s⁻¹ and 1.12e+06 M⁻¹ s⁻¹

Question: How did the Kd turn out when B4 was run?
Answer: 0.069 nM and 0.081 nM

Question: And the koff?
Answer: 5.39e-05 s⁻¹ and 7.69e-05 s⁻¹

Question: What about the kon of the same binder?
Answer: 778000 M⁻¹ s⁻¹ and 953000 M⁻¹ s⁻¹

Question: With B5 as the binder, how does the Kd read?
Answer: 0.139 nM and 0.101 nM

Question: And the koff?
Answer: 0.000124 s⁻¹ and 0.000106 s⁻¹

Question: What about the kon of the same binder?
Answer: 893000 M⁻¹ s⁻¹ and 1.05e+06 M⁻¹ s⁻¹

Question: Which Kd does the source give for B6 here?
Answer: 0.11 nM and 0.314 nM

Question: What about the kon of the same binder?
Answer: 956000 M⁻¹ s⁻¹ and 1.26e+06 M⁻¹ s⁻¹

Question: How did the kon turn out when B7 was run?
Answer: 956000 M⁻¹ s⁻¹ and 1.18e+06 M⁻¹ s⁻¹

Question: B8 was tested. Which Kd did it give?
Answer: 0.112 nM and 0.074 nM

Question: What about the koff of the same binder?
Answer: 0.000113 s⁻¹ and 6.89e-05 s⁻¹

Question: What about the kon of the same binder?
Answer: 1.01e+06 M⁻¹ s⁻¹ and 936000 M⁻¹ s⁻¹

Molecular target: T2, WHT2483 (PROSS-MPNN stabilized design …)
Test: as above
Conditions: both partners purified

Question: How did the Kd turn out when B1 was run?
Answer: ≤ 0.01 nM

Question: B2 was tested. Which Kd did it give?
Answer: 0.053 nM and 0.018 nM

Question: What about the kon of the same binder?
Answer: 1.02e+06 M⁻¹ s⁻¹ and 1.24e+06 M⁻¹ s⁻¹

Question: For B3, which kon is on record?
Answer: 1.04e+06 M⁻¹ s⁻¹ and 1.26e+06 M⁻¹ s⁻¹

Question: Which Kd does the source give for B4 here?
Answer: 0.085 nM and 0.059 nM

Question: And the koff?
Answer: 6.59e-05 s⁻¹ and 5.6e-05 s⁻¹

Question: What about the kon of the same binder?
Answer: 778000 M⁻¹ s⁻¹ and 949000 M⁻¹ s⁻¹

Question: Which results are given for B5?
Answer: Kd: 0.089 nM and 0.154 nM; koff: 6.92e-05 s⁻¹ and 0.000165 s⁻¹; kon: 778000 M⁻¹ s⁻¹ and 1.07e+06 M⁻¹ s⁻¹

Question: With B6 as the binder, how does the kon read?
Answer: 978000 M⁻¹ s⁻¹ and 1.37e+06 M⁻¹ s⁻¹

Question: B8 was tested. Which kon did it give?
Answer: 838000 M⁻¹ s⁻¹ and 910000 M⁻¹ s⁻¹

Molecular target: T3, parental PvRBP2b_(169-470) (Plasmodium vivax reticulocyte-binding protein 2b, N-terminal domain) (Plasmodium vivax strain Salvador I, UniProt A5K736)
T3 construct: TEV cleavage site between the His tag and the protein; pPROEX HTb vector; also called parental construct; parental protein
Test: as above
Conditions: both partners purified

Question: What does the source list for B1?
Answer: Kd: < 0.001 nM; koff: < 1e-07 s⁻¹; kon: 1.78e+06 M⁻¹ s⁻¹ and 1.31e+06 M⁻¹ s⁻¹

Question: With B2 as the binder, how does the Kd read?
Answer: < 0.001 nM

Question: And the koff?
Answer: < 1e-07 s⁻¹

Question: What about the kon of the same binder?
Answer: 1.75e+06 M⁻¹ s⁻¹ and 1.32e+06 M⁻¹ s⁻¹

Question: For B3, which Kd is on record?
Answer: < 0.001 nM

Question: And the koff?
Answer: < 1e-07 s⁻¹

Question: What about the kon of the same binder?
Answer: 1.58e+06 M⁻¹ s⁻¹ and 1.18e+06 M⁻¹ s⁻¹

Question: With B4 as the binder, how does the Kd read?
Answer: < 0.001 nM

Question: And the koff?
Answer: < 1e-07 s⁻¹

Question: And the kon?
Answer: 1.33e+06 M⁻¹ s⁻¹ and 976000 M⁻¹ s⁻¹

Question: B5 was tested. Which Kd did it give?
Answer: < 0.001 nM

Question: And the koff?
Answer: < 1e-07 s⁻¹

Question: And the kon?
Answer: 1.18e+06 M⁻¹ s⁻¹ and 1e+06 M⁻¹ s⁻¹

Question: What does the source list for B6?
Answer: Kd: < 0.001 nM; koff: < 1e-07 s⁻¹; kon: 1.63e+06 M⁻¹ s⁻¹ and 1.25e+06 M⁻¹ s⁻¹

Question: What does the source list for B7?
Answer: Kd: < 0.001 nM; koff: < 1e-07 s⁻¹; kon: 1.24e+06 M⁻¹ s⁻¹ and 1.52e+06 M⁻¹ s⁻¹

Question: With B8 as the binder, how does the Kd read?
Answer: < 0.001 nM

Question: And the koff?
Answer: < 1e-07 s⁻¹

Question: And the kon?
Answer: 1.48e+06 M⁻¹ s⁻¹ and 994000 M⁻¹ s⁻¹
